According to publication PMC3969221, “Bacillus thuringiensis Cry1A toxins are versatile proteins with multiple modes of action: two distinct pre-pores are involved in toxicity” (Biochemical Journal, 2014):

Target: T1, Manduca sexta cadherin protein fragment (CR7–CR12) (Manduca sexta)
T1 construct: Manduca sexta cadherin receptor, fragment CR7–CR12, residues 810–1480; also called cadherin fragment; cadherin receptor fragment
Assay: ELISA; 1 μg of cadherin fragment coated per well; toxin or protoxin dilutions in PBS, 1 h at 37°C; detected with polyclonal anti-Cry1Ab antibody; Scatchard analysis; apparent Kd
Details: both partners purified

B1: trypsin-activated Cry1Ab toxin (domain or fragment)
chain: not shown
modifications: Wild-type toxin cut from the protoxin by trypsin. Limits are not given; the conventional Cry1A trypsin core is used (cut after R28, C-terminal end near residue 619). Subspecies is not printed …
B1 showed a Kd of 3.3 ± 0.6 nM.
